Assay results: patent US20130197191A1 (published 2013)
Each block holds one binder with its values, some of them ahead of it.

Biological target: recombinant human β-Klotho (UniProt Q86Z14 53-996, biotinylated in the AlphaScreen assays (site not stated))
Test: binding EC50

Sequence of recombinant human β-Klotho (Q86Z14 53-996): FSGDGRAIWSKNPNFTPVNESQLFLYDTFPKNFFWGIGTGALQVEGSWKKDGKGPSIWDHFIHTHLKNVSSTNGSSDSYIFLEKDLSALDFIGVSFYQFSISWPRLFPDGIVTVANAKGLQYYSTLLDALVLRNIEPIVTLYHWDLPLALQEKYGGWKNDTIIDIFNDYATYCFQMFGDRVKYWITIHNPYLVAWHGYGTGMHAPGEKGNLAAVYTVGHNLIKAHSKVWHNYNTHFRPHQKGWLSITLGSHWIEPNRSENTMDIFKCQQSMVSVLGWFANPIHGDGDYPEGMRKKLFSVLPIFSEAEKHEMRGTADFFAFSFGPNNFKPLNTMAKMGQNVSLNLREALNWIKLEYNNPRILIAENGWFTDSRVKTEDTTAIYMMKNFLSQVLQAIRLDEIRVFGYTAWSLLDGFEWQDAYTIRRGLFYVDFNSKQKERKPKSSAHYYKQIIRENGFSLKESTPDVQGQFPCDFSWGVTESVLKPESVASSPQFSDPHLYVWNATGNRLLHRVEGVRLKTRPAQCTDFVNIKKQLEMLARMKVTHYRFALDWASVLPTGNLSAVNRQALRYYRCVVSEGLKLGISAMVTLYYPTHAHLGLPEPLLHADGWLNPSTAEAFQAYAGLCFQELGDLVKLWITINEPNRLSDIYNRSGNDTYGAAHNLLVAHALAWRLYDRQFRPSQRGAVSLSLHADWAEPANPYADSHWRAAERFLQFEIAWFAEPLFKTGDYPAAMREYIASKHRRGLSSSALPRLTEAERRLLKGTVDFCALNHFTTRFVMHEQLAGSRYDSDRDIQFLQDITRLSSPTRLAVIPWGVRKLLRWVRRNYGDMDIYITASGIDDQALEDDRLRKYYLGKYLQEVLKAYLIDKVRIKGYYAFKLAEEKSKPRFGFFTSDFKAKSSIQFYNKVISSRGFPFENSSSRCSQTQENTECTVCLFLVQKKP

B1: β-Klotho walked dimer BK_R1c_D18 (designed binder)
chain: CPPDEFQCRGTKKCLPLAWVCDGDNDCEDDSDEESCASAVHTCQSNEFRCRSGRCIPQHWLCDGLNDCGDGSDESQQCSAPASEPPGSL
- EC50: 21.5 nM

B4: β-Klotho walked dimer BK_R1c_D05 (designed binder)
chain: CAAGQFRCHNSDTCLPGAWVCDGDNDCGDNSDEASCQKRTCHSFNQFECRNGQCIPLHLVCDGVPDCGDNSDETDCGDSHILPFSTPGPST
- EC50: 0.01 nM

Other lines, results leading:

- EC50: 99 nM
B2: β-Klotho walked dimer BK_R1c_D22 (designed binder)
chain: CQPDEFTCSSGRCIPQPWLCDGLNDCGDGSDEPPAHCSAPASEPPGSLCRPDEFRCKNGRCIPQTWVCDGEDDCQDSSDETDCESTVRT

- EC50: 8.52 nM
B3: β-Klotho walked dimer BK_R1c_D24 (designed binder)
chain: CRPDEFPCRSTGRCVPRRWVCDGVDDCGDNSDESLAHCQTPTCQPDEFTCSSGRCIPQPWLCDGLNDCGDGSDEPPAHCSAPASEPPGSL
